Data: article doi:10.1101/714493

Assays:
Experiment in all cases: SEC
[1] = biological target: Bile Salt Hydrolase from Enterococcus faecalis, wild type (Enterococcus faecalis)
[2] = biological target: EfBSH E269Q (Enterococcus faecalis)
[3] = biological target: EfBSH R207A (Enterococcus faecalis)
[4] = biological target: EfBSH E269A (Enterococcus faecalis)
[5] = biological target: EfBSH E269D (Enterococcus faecalis)

Bile Salt Hydrolase from Enterococcus faecalis, wild type (enzyme)
stoichiometry N [1]: 4

EfBSH E269Q (enzyme)
stoichiometry N [2]: 4

EfBSH R207A (enzyme)
stoichiometry N [3]: 4

EfBSH E269A (enzyme)
stoichiometry N [4]: 4

EfBSH E269D (enzyme)
stoichiometry N [5]: 4
